From patent publication US20020107196A1

Target: human CXCR4 receptor (human)
Assay: cell-based or functional assay

Chain of stromal cell derived factor-1α (SDF-1α) (ligand) (chain): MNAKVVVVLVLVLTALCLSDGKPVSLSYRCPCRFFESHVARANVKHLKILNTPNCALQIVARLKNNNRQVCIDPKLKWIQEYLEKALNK

EC50 of HUVEC migration (Transwell chemotaxis): 10 to 20 nM | elevation of [Ca+2]i in HUVEC (fura-2 fluorescence); concentration of maximal response: 100 nM | percent migration of input EC (Transwell chemotaxis): 40%
Substance: stromal cell derived factor-1α (SDF-1α) (ligand)
